Publication PMC4634812, “Characterization of proliferating cell nuclear antigen (PCNA) from pathogenic yeast Candida albicans and its functional analyses in S. Cerevisiae” (BMC Microbiology, 2015)

Key:
[1] = molecular target: Candida albicans PCNA G178S mutant (Candida albicans SC5314) (UniProt Q5AMN0); assay: cross-linking; about 20 μg protein in 20 mM HEPES pH 7.5 with glutaraldehyde, 5 min at 37 °C, then 12 % SDS-PAGE
[2] = molecular target: T1, Yeast DNA polymerase eta (ScPolη) (S. cerevisiae, UniProt Q04049 1-632); assay: SPR; Bio-Rad XPR 36; CaPCNA, ScPCNA or BSA (~350 RU) amine-coupled on a GLC chip; ScPolη injected at 25-500nM; 25 mM HEPES pH 7.5, 10 % glycerol, 200 mM sodium acetate, 8 mM magnesium acetate, 1 mM DTT, 0.005 % Tween-20, 0.2 mg/ml BSA; 20 °C; 1:1 Langmuir fit; details: both partners purified
T1 construct: DNA polymerase eta (Rad30) of S. cerevisiae; also called Rad30; ScRAD30; source: S. cerevisiae YRP654 (protease deficient), GAL-PGK-GST-ScRAD30 construct, purified by the same protocol as PCNA
T1 sequence (looked up): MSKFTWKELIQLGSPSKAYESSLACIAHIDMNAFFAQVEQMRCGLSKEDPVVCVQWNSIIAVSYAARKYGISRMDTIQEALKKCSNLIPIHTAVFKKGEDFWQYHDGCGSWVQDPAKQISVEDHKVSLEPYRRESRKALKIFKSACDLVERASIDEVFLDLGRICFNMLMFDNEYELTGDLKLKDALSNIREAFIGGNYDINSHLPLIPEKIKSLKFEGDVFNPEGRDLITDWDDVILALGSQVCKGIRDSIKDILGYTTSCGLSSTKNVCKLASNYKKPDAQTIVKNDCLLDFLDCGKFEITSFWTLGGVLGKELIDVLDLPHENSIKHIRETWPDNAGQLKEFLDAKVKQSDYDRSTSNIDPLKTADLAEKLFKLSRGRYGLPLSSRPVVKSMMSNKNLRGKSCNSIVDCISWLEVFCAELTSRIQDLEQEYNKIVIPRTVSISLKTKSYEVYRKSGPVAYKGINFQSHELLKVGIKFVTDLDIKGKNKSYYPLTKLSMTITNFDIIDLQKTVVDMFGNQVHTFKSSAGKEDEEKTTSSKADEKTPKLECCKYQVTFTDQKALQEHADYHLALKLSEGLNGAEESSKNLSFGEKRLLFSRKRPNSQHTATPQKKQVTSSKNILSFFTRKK

[3] = molecular target: the molecule itself; assay: native gel or EMSA; 12 % non-denaturing polyacrylamide gel, ~1 μg of each purified protein, Coomassie stain
[4] = molecular target: T1, Yeast DNA polymerase eta (ScPolη); assay: SPR; details: both partners purified
[5] = molecular target: the molecule itself; assay: cross-linking; about 20 μg protein in 20 mM HEPES pH 7.5 with glutaraldehyde, 5 min at 37 °C, then 12 % SDS-PAGE

## Candida albicans PCNA G178S mutant (from UniProt Q5AMN0 1-259) (natural protein)
[1]
  stoichiometry N: 2

B1: Saccharomyces cerevisiae PCNA (ScPCNA), wild type (natural protein, S. cerevisiae)
chain: MLEAKFEEASLFKRIIDGFKDCVQLVNFQCKEDGIIAQAVDDSRVLLVSLEIGVEAFQEYRCDHPVTLGMDLTSLSKILRCGNNTDTLTLIADNTPDSIILLFEDTKKDRIAEYSLKLMDIDADFLKIEELQYDSTLSLPSSEFSKIVRDLSQLSDSINIMITKETIKFVADGDIGSGSVIIKPFVDMEHPETSIKLEMDQPVDLTFGAKYLLDIIKGSSLSDRVGIRLSSEAPALFQFDLKSGFLQFFLAPKFNDEE
notes: PCNA (POL30) of S. cerevisiae; The cloning of the bacterial ScPCNA construct is not described; also called yeast PCNA; ScPol30; source: E. coli BL21-DE3, purified (glutathione beads, eluted by Prescission protease)
[2]
  Kd: 80.1 nM
  koff: 0.00138 s⁻¹
[3]
  stoichiometry N: 3

B2: Candida albicans proliferating cell nuclear antigen (CaPCNA), wild type (natural protein, Candida albicans SC5314, UniProt Q5AMN0 1-259, looked up)
chain: MLEGKFEEAALLKKVVEAIKDCVKKCNFNCSEHGITVQAVDDSRVLLVSLLIGQTSFSEYRCDRDVTLGIDLESFSKIIKSANNEDFLTLLAEDSPDQIMAILEEKQKEKISEYSLKLMDIDSEFLQIDDMEYDAVVNMPSSDFAKLVRDLKNLSESLRVVVTKDSVKFTSEGDSGSGSVILKPYTNLKNERESVTISLDDPVDLTFGLKYLNDIVKAATLSDVITIKLADKTPALFEFKMQSGGYLRFYLAPKFDDDE
notes: PCNA (POL30) of Candida albicans SC5314, orf19.4616 of the Candida Genome Database, 259 amino acids; the orf was amplified from genomic DNA with primers from the start to the stop codon; A few residues of the Prescission site and the cloning site may remain at the N-terminus after cleavage; also called orf19.4616; CaO19.12086; source: E. coli BL21-DE3, purified (glutathione beads, eluted by …)
[4]
  Kd: 10.6 nM
  koff: 0.000166 s⁻¹
[3]
  stoichiometry N: 3
[5]
  stoichiometry N: 6
